Columns and labels:
L30 K87A = L30 K87A (rat, UniProt P62890 1-115, K87A); assay: EMSA; little effect vs WT; 30 mM Tris-HCl pH 8.0, 75 mM KCl, 5 mM MgCl2, 1 mM DTT, 0.04 ug/uL BSA, 10% glycerol, 50 ng/uL yeast tRNA, 30 C 15 min; EMSA gels 0.5X TBE at 4 C; RNase digesti
L30 K36A = L30 K36A (rat, UniProt P62890 1-115, K36A); assay: EMSA; reduced by 60%; 30 mM Tris-HCl pH 8.0, 75 mM KCl, 5 mM MgCl2, 1 mM DTT, 0.04 ug/uL BSA, 10% glycerol, 50 ng/uL yeast tRNA, 30 C 15 min; EMSA gels 0.5X TBE at 4 C; RNase digesti
L30 E110A = L30 E110A (rat, UniProt P62890 1-115, E110A); assay: EMSA; comparable to WT; 30 mM Tris-HCl pH 8.0, 75 mM KCl, 5 mM MgCl2, 1 mM DTT, 0.04 ug/uL BSA, 10% glycerol, 50 ng/uL yeast tRNA, 30 C 15 min; EMSA gels 0.5X TBE at 4 C; RNase digesti
L30 M108A = L30 M108A (rat, UniProt P62890 1-115, M108A); assay: as above
L30 L29A = L30 L29A (rat, UniProt P62890 1-115, L29A); assay: as above
L30 V91A = L30 V91A (rat, UniProt P62890 1-115, V91A); assay: as above
L30 Y89A = L30 Y89A (rat, UniProt P62890 1-115, Y89A); assay: EMSA; L30 at 50% WT binding; 30 mM Tris-HCl pH 8.0, 75 mM KCl, 5 mM MgCl2, 1 mM DTT, 0.04 ug/uL BSA, 10% glycerol, 50 ng/uL yeast tRNA, 30 C 15 min; EMSA gels 0.5X TBE at 4 C; RNase digesti
L30 L35A = L30 L35A (rat, UniProt P62890 1-115, L35A); assay: EMSA; reduced by 14%, significant; 30 mM Tris-HCl pH 8.0, 75 mM KCl, 5 mM MgCl2, 1 mM DTT, 0.04 ug/uL BSA, 10% glycerol, 50 ng/uL yeast tRNA, 30 C 15 min; EMSA gels 0.5X TBE at 4 C; RNase digesti

Q: Does GGGACCGGAGUGUCGCAAGACGCAGAGAUGGUCC (structured_RNA) [L30 RNA (stem-loop of L30 pre-mRNA)] bind (L30 K87A)?
A: binds

Q: What about the binding signal (L30 K36A) of the same binder?
A: 40 % of WT binding

Q: Does GGGACCGGAGUGUCGCAAGACGCAGAGAUGGUCC (structured_RNA) [L30 RNA (stem-loop of L30 pre-mRNA)] bind (L30 E110A)?
A: binds

Q: Does GGGACCGGAGUGUCGCAAGACGCAGAGAUGGUCC (structured_RNA) [L30 RNA (stem-loop of L30 pre-mRNA)] bind (L30 M108A)?
A: binds

Q: Does GGGACCGGAGUGUCGCAAGACGCAGAGAUGGUCC (structured_RNA) [L30 RNA (stem-loop of L30 pre-mRNA)] bind (L30 L29A)?
A: binds

Q: Does GGGACCGGAGUGUCGCAAGACGCAGAGAUGGUCC (structured_RNA) [L30 RNA (stem-loop of L30 pre-mRNA)] bind (L30 V91A)?
A: binds

Q: And the binding signal (L30 Y89A)?
A: 37 % of WT binding

Q: And the binding signal (L30 L35A)?
A: 86 % of WT binding

Reference: PMC3706390
